We go through five molecules from paper PMC6192195, “Hampered motility promotes the evolution of wrinkly phenotype in Bacillus subtilis” (BMC Evolutionary Biology, 2018).

T1: SinR-L99S variant (Bacillus subtilis, UniProt P06533 1-111, L99S)
T1 sequence: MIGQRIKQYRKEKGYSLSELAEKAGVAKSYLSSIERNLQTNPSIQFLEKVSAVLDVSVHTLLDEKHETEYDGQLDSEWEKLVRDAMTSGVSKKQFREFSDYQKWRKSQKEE

T2: SinR (wild type), master repressor of biofilm-related genes (Bacillus subtilis, UniProt P06533 1-111)
T2 chain: T1 sequence with S99L

T3: SinR (Bacillus subtilis 168 (sequence …, UniProt P06533 1-111))
T3 sequence: T1 sequence with S99L

T4: SinR-L99S (Bacillus subtilis 168 (sequence …, UniProt P06533 1-111, L99S))
T4 sequence: T1 sequence

B1: SinR (wild type), master repressor of biofilm-related genes (natural protein, Bacillus subtilis)
chain: T1 sequence with S99L
notes: SinR of Bacillus subtilis; Tetramer by analytical SEC; also called SinR^WT; wildtype SinR; source: E. coli BL21(DE3), purified (Ni-NTA, SEC)
B2: SinR-L99S variant (natural protein, Bacillus subtilis)
chain: T1 sequence
notes: SinR of Bacillus subtilis with L99S, made by two-step PCR mutagenesis of the sinR construct in pET24d; L99S arose spontaneously in the wrinkly isolates (WTWS1, ΔhagWS2) during pellicle growth in the laboratory; the recombinant protein was made by site-directed mutagenesis; Tetramer by analytical SEC; source: E. coli BL21(DE3), purified (Ni-NTA, SEC)
B3: SinI^9-39 peptide (SinI protein from amino acid 9 to 39) (peptide, UniProt P23308 9-39, looked up)
peptide: FELDQEWVELMVEAKEANISPEEIRKYLLLN
notes: SinI, antagonist (anti-repressor) of SinR, Bacillus subtilis, amino acids 9-39; Synthesized with a free amine at the N-terminus and a free acid group at the C-terminus; also called SinI peptide; truncated version of SinI; source: synthetic peptide (peptides&elephants GmbH)
B4: IR-DNA (SinR operator inverted repeat) (dsDNA)
DNA 1: TTTGTTCTCTAAAGAGAACTTA
DNA 2: TAAGTTCTCTTTAGAGAACAAA

The target in one series is SinI (Bacillus subtilis) (UniProt P23308). The settings on record: cited from earlier work.
Sequence of SinI (Bacillus subtilis) (P23308 whole entry): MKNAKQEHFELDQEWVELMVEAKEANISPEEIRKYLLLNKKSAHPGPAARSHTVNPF
Series [1] deals with the molecule itself. Briefly: SEC; analytical SEC, Superdex 200 Increase 10/300 GL; SinR or SinR-L99S alone (tetrameric state also seen with IR-DNA). (In gel filtration, larger molecules generally elute earlier.)
The target in series [2] is B2. Briefly: ITC; 250 uM SinI 9-39 peptide titrated into 25 uM SinR or SinR-L99S in the cell, 25 °C, buffer C (20 mM HEPES/NaOH, 500 mM NaCl); apparent KD; one-site model for wild type, two-sites model for L99S. The settings on record: both partners purified. Background: ITC needs no label: the signal is the heat of the interaction.
For series [3], the target named is B1. Described as above. The settings on record: both partners purified.
In series [4] the target is T1, SinR-L99S variant. Put plainly: ITC; first site (two-site model).
Series [5] addresses T1, SinR-L99S variant. Briefly: ITC; second site (two-site model).
The target of series [6] is T2, SinR (wild type), master repressor of …. Briefly: ITC.
The target of series [7] is T3, SinR. Put plainly: ITC; binding site 1 of two-sites model; N1 = 0.264 +/- 0.0114; ITC: buffer C (20 mM HEPES/NaOH, 500 mM NaCl; pH not stated for buffer C, 8.0 for buffers A/B), 25 °C; 30 µM SinR in cell, 150 µM IR-DNA titrated in. The settings on record: protein: recombinant; tags: C-terminal His6; chain copies: 4; blunt.
For the next series, the target named is T4, SinR-L99S. Briefly: ITC; binding site 1 of two-sites model; comparable to wild type; ITC: buffer C (20 mM HEPES/NaOH, 500 mM NaCl; pH not stated for buffer C, 8.0 for buffers A/B), 25 °C; 30 µM SinR in cell, 150 µM IR-DNA titrated in. The settings on record: protein: recombinant; tags: C-terminal His6; chain copies: 4; blunt.
In series [8] the target is T3, SinR. Put plainly: ITC; binding site 2 of two-sites model; N2 = 0.143 +/- 0.0123; ITC: buffer C (20 mM HEPES/NaOH, 500 mM NaCl; pH not stated for buffer C, 8.0 for buffers A/B), 25 °C; 30 µM SinR in cell, 150 µM IR-DNA titrated in. The settings on record: protein: recombinant; tags: C-terminal His6; chain copies: 4; blunt.

Broadly, the stoichiometry N is a count of units in the complex or per binding partner.

Changes are numbered by the printed parent chain. In names and notes the source's numbering stands.

As for SinR (from UniProt P06533), the Kd with SinI (Bacillus subtilis) was under 10 nM.

As to B1, the “stoichiometry N” value in series [1] turned out to be 4.

Take B2: the “stoichiometry N” value in series [1] stood at 4.

As to B3, in the series with SinR-L99S variant [2], the “KD site 1” value is about 162 nM, the “KD site 2” value was about 571 nM, the “dH binding event 1” value was -3.93 ± 1.45 kcal/mol and the “dH binding event 2” value was -15.2 kcal/mol. In addition, the “stoichiometry N” value with SinR-L99S variant [2] was about 1.35. In series [3], the Kd is about 7 nM, the dH is -3.75 ± 0.136 kcal/mol and the “stoichiometry N” value was determined as 1.2 ± 0.02. This molecule also returned a Ka with SinR-L99S variant [4] of 6.16e+06 M⁻¹. The Ka in the series with SinR-L99S variant [5] came out at 1.75e+06 M⁻¹. Moreover, the Ka in [6] was found to be 1.41e+08 M⁻¹.

In the case of B4, the Kd with SinR [7] is about 121 nM; with SinR-L99S, about 99 nM; with SinR [8] it was about 6 nM.
